The values below come from paper doi:10.1101/508887 (bioRxiv, 2018).

The assay has as its target T1, KIF1C-SNAPf-3XFLAG, full-length KIF1C (human, UniProt O43896 1-1103, TMR via the SNAP-tag (in the TIRF assays)).
T1 sequence: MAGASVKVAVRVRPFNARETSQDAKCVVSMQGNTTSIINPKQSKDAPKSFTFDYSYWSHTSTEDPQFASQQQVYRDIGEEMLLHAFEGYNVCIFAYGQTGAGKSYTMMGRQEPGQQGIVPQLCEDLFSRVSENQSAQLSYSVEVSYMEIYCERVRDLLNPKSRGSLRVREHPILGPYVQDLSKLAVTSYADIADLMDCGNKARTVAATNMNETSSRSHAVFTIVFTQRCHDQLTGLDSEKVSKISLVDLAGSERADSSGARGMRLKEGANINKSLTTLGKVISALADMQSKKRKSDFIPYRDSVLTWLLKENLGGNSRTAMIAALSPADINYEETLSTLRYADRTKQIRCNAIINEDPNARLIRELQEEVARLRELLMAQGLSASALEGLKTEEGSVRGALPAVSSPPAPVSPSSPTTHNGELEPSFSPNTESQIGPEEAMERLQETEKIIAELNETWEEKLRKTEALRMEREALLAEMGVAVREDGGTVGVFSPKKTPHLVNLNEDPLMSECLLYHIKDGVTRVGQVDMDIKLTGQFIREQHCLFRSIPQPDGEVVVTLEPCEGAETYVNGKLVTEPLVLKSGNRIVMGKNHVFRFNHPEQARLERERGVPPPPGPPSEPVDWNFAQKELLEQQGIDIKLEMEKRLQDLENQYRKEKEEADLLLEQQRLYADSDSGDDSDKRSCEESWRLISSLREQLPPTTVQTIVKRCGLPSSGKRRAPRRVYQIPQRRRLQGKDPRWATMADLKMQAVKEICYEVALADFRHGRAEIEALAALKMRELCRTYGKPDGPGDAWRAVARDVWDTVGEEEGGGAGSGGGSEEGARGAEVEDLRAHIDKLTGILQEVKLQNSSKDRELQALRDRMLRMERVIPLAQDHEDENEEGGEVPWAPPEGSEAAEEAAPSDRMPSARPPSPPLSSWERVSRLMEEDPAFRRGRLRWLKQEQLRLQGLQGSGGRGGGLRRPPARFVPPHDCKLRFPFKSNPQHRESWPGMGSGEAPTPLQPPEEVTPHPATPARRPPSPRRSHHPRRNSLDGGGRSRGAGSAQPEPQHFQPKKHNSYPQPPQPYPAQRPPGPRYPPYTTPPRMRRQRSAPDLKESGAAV
Nature of the assay: single-molecule three-colour TIRF colocalisation on microtubules.

B1: Halo-HOOK3(1-718)-3XFLAG, full-length HOOK3 (natural protein)
chain: MFSVESLERAELCESLLTWIQTFNVDAPCQTVEDLTNGVVMAQVLQKIDPAYFDENWLNRIKTEVGDNWRLKISNLKKILKGILDYNHEILGQQINDFTLPDVNLIGEHSDAAELGRMLQLILGCAVNCEQKQEYIQAIMMMEESVQHVVMTAIQELMSKESPVSAGNDAYVDLDRQLKKTTEELNEALSAKEEIAQRCHELDMQVAALQEEKSSLLAENQVLMERLNQSDSIEDPNSPAGRRHLQLQTQLEQLQEETFRLEAAKDDYRIRCEELEKEISELRQQNDELTTLADEAQSLKDEIDVLRHSSDKVSKLEGQVESYKKKLEDLGDLRRQVKLLEEKNTMYMQNTVSLEEELRKANAARSQLETYKRQVVELQNRLSEESKKADKLDFEYKRLKEKVDSLQKEKDRLRTERDSLKETIEELRCVQAQEGQLTTQGLMPLGSQESSDSLAAEIVTPEIREKLIRLQHENKMLKLNQEGSDNEKIALLQSLLDDANLRKNELETENRLVNQRLLEVQSQVEELQKSLQDQGSKAEDSVLLKKKLEEHLEKLHEANNELQKKRAIIEDLEPRFNNSSLKIEELQEALRKKEEEMKQMEERYKKYLEKAKSVIRTLDPKQNQGAAPEIQALKNQLQERDRLFHSLEKEYEKTKSQREMEEKYIVSAWYNMGMTLHKKAAEDRLASTGSGQSFLARQRQATSSRRSYPGHVQPATAR
modifications: Alexa-488 via the HaloTag (in the TIRF assays)
In the case of B1, the binding result is listed as “binds”.
